We go through two molecules from paper PMC5987255 (Molecular cell, 2018).

The labels stand for the following.
B2: mouse core RAG1 (aa 384-1008), E962Q mutant (domain or fragment, UniProt P15919 384-1008, looked up)
chain: VHINKGGRPRQHLLSLTRRAQKHRLRELKIQVKEFADKEEGGDVKAVCLTLFLLALRARNEHRQADELEAIMQGRGSGLQPAVCLAIRVNTFLSCSQYHKMYRTVKAITGRQIFQPLHALRNAEKVLLPGYHPFEWQPPLKNVSSRTDVGIIDGLSGLASSVDEYPVDTIAKRFRYDSALVSALMDMEEDILEGMRSQDLDDYLNGPFTVVVKESCDGMGDVSEKHGSGPAVPEKAVRFSFTVMRITIEHGSQNVKVFEEPKPNSELCCKPLCLMLADESDHETLTAILSPLIAEREAMKSSELTLEMGGIPRTFKFIFRGTGYDEKLVREVEGLEASGSVYICTLCDTTRLEASQNLVFHSITRSHAENLQRYEVWRSNPYHESVEELRDRVKGVSAKPFIETVPSIDALHCDIGNAAEFYKIFQLEIGEVYKHPNASKEERKRWQATLDKHLRKRMNLKPIMRMNGNFARKLMTQETVDAVCELIPSEERHEALRELMDLYLKMKPVWRSSCPAKECPESLCQYSFNSQRFAELLSTKFKYRYEGKITNYFHKTLAHVPEIIERDGSIGAWASEGNQSGNKLFRRFRKMNARQSKCYEMEDVLKHHWLYTSKYLQKFMNAHNA

The target of series [1] is B2. Briefly: crystal structure.
The series “crystal structure” concerns the molecule itself. Put plainly: crystal structure.

B1: mouse core RAG2 (aa 1-359) (domain or fragment, UniProt P21784 1-359, looked up)
chain: MSLQMVTVGHNIALIQPGFSLMNFDGQVFFFGQKGWPKRSCPTGVFHFDIKQNHLKLKPAIFSKDSCYLPPLRYPATCSYKGSIDSDKHQYIIHGGKTPNNELSDKIYIMSVACKNNKKVTFRCTEKDLVGDVPEPRYGHSIDVVYSRGKSMGVLFGGRSYMPSTQRTTEKWNSVADCLPHVFLIDFEFGCATSYILPELQDGLSFHVSIARNDTVYILGGHSLASNIRPANLYRIRVDLPLGTPAVNCTVLPGGISVSSAILTQTNNDEFVIVGGYQLENQKRMVCSLVSLGDNTIEISEMETPDWTSDIKHSKIWFGSNMGNGTIFLGIPGDNKQAMSEAFYFYTLRCSEEDLSEDQ
Consider B1, for which the binding result in series [1] is “binds”.

In the case of B2, the binding result in “crystal structure” is on record as “binds”.
